Literature values as cited in paper PMC7039207.

Target: Vinculin tail D5 (Gallus gallus) (UniProt P12003)

## Vinculin head D1-D4 (from UniProt P12003)
  Kd: 100 nM
